Data set [1] can be described thus: Intrinsic reaction rate of IAM-biotin with unprotected cysteine (GSH), iodide absorbance at 226 nm. The data set is classed as physicochemical. Particulars: pH 7.6; for pseudo-first order rate constant (kint): 80 μM IAM-biotin, 800 μM GSH. The method, then:
FIGS. 10A-C show the determination of kint in model compounds and unfolded SN.
The iodoacetyl moiety of IAM-biotin (EZ-Link™ Iodoacetyl-PEG2-Biotin; Pierce; 21334) reacts primarily with free thiolate to form a stable thioether bond. Because thiolate was the predominant reactive species, the reaction rate was dependent on the pKa of cysteine (˜8.6) relative to solution pH (which was set to 7.6). The kint values reported here were only valid for pH 7.6. kint was determined for an unprotected cysteine by reacting IAM-biotin with L-glutathione (GSH) (Sigma; G4251) and monitoring the absorbance of the liberated iodide ion (ϵ226=12,600M^−1 cm^−1 at 226 nm) as function of time. Second-order rate constants for the reaction of IAM-biotin with GSH were measured under pseudo first-order conditions at 25° C., 35° C., 45° C. and 55° C. (80 μM IAM-biotin, 800 μM GSH, 25 mM MOPS, 100 mM KCl and pH 7.6) and analyzed in terms of the Arrhenius equation (see FIG. 10).

In data set [2] the target is T1, E. coli ribose-binding protein (ecRBP) (Escherichia coli, UniProt P02925, L86C/T28W).
T1 construct: made in house; host or cells: cell-free TnT, E. coli BL21 Star (DE3) extract
As to the kind of experiment: biochemical. Conditions: for ΔG / ΔΔG / kex: ecRBP.L62C, 48.9 °C; for kex: 1.00E−03 M IAM. How it is done: (§1) The rate of labeling of internal cysteine residues was measured by reacting 30-50 μL of ˜0.1 μM protein sample (i.e., ˜3-5 picomoles of protein) with excess IAM-biotin (1 mM unless otherwise stated) at constant temperature (25 mM MOPS, 100 mM KCl and pH 7.6). 5 μL aliquots were removed at fixed time intervals and quenched by addition of 2 μL 2M β-mercaptoethanol (Sigma; M6250). Following addition of 5 μL LDS-buffer (Invitrogen; NP0007) and heating for 2 min at 85° C., (un)labeled protein species were resolved by SDS-PAGE (Novex 4-12% Bis-Tris Gels; Invitrogen; NP0321). […] For the experiment shown in FIG. 8A, ecRBP variant L62C was modified with 1 mM IAM-biotin at 47.1° C., pH 7.6. […] Streptavidin was used to alter the electrophoretic mobility of the labeled protein (Streptavidin bands indicated by a, b, and c). […] Error bars represent the estimated uncertainty of the integrated band intensities (˜2%). For the experiment shown in FIG. 8B, SN variant L36C was labeled with IAM-biotin at 35.3° C., pH 7.6. […] At 29.3° C., 26.3° C. and 23.3° C., kint and klabel were manipulated by increasing the concentration of IAM-biotin from 1 mM to 3.16 mM.
(§2) The modulation of protein stability by binding of metals, ligands, activators, inhibitors, substrates, nucleic acid or other proteins can be used to measure binding affinities within a GUWO. For a protein with a single binding site, the free energy of ligand binding was described by
(§3) [formula] where P was the binding polynomial, [L] the total ligand concentration, and KD the apparent dissociation constant of the ligand. For proteins with multiple ligand-binding sites, P was expanded as described in Equations 21-36 below.
(§4) By thermodynamic linkage, any change in ΔGU caused predominantly by ligand binding (Scheme 1) is ΔGbind=ΔΔ^LGU=Δ^LGU−Δ^apoGU [20] where Δ^LGU and Δ^apoGU were the stability of the protein in the presence of absence of ligand respectively. Equation 20 was used to obtain apparent KD values from either the ligand dependence of ΔΔGU (by curve fitting), or from a single measurement of ΔΔGU.

In data set [3] the target is T2, E. coli ribose-binding protein (ecRBP) (Escherichia coli, UniProt P02925, A213C/T28W).
T2 construct: made in house; host or cells: cell-free TnT, E. coli BL21 Star (DE3) extract
Briefly: biochemical. Conditions: for ΔG / ΔΔG / kex: ecRBP.A188C, 54.6 °C; for kex: 1.00E−03 M IAM. The method, then:
as §1, §2, §3, §4

Data set [4] is described as follows: Quantitative cysteine reactivity (QCR): protein stability, temperature dependence of ΔGU. Particulars: for ΔHm: Gibbs-Helmholtz fit, ΔCp assigned a priori; for ΔG°U at 25° C.: ecRBP mutants, Gibbs-Helmholtz extrapolation; for apparent Tm below wild-type: versus literature wild-type Tm. In kind it is physicochemical. The method, then: as §1
Following staining with GelCode™ Blue Stain reagent (Thermo Scientific; 24592), gel images were digitized and band intensities quantified by densitometry (ImageJ; Rasband (1997-2009), U.S. National Institutes of Health, Bethesda, Md.) and fit to a single exponential to derive klabel. When designing QCR experiments, consideration was given to the degradation of the iodoacetyl moiety of IAM-biotin, which was dependent on time, exposure to light, and temperature. […] At higher temperatures the degradation of IAM-biotin is taken into account, primarily by limiting the labeling reaction to less than ˜90 min.
[formula] applies only if the labeling conditions were fully in the EX2 limit, when kclose>>kint. As labeling reagent concentration increases, kint increases concomitantly and eventually kint will become equal to or greater than kclose. Under these conditions, the observed labeling rate was determined solely by kopen and klabel and was no longer a measure of stability. The reagent concentration and environmental conditions (i.e. pH and temperature) at which EX2 conditions no longer apply varies according to the (un)folding kinetics of the protein. A simple test of reaction mechanism was to change reagent concentration and remeasure the kinetics: EX2 conditions were satisfied if the change in the observed labeling rate was proportional to the change in reagent concentration (see FIG. 9).
The QCR experiment was designed to determine the Gibbs free energy of global protein unfolding by measuring the reactivity of wild-type or mutant cysteines buried in a hydrophobic core. […] These mutant proteins were produced in 200 μL batches by cell-free coupled transcription and translation in E. coli extract. […] This approach uses approximately 0.5 picomoles (˜10 nanograms) of protein per time point and can use a variety of thiol-reactive reagents that alter electrophoretic mobility or were highly fluorescent.
The QCR method exploits the conformational fluctuations of a protein to measure conformational free energy. Cysteines that were protected in the folded ensemble can be modified by thiol-reactive probe only by complete exposure to bulk solvent by transient unfolding reactions, as described by a two-step reaction scheme:
Unfolding free energies (ΔGU) can be determined under EX2 conditions (kclose>>kint) by measuring klabel, the rate constant for labeling a protected cysteine at a specified concentration of thiol probe [P]

Where [5] appears, read: second-order rate constants 25-55 °C.

T1 sequence (P02925 other isoform, or with tags, fused parts or gaps T28W/L86C): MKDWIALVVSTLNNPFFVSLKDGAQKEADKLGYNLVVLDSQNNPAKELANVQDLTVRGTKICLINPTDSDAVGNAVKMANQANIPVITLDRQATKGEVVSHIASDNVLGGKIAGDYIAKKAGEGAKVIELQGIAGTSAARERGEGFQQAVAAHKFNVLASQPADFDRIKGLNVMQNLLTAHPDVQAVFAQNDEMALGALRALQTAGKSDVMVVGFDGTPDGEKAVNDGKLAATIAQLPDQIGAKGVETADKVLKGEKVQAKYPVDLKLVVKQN
T2 sequence (P02925 other isoform, or with tags, fused parts or gaps T28W/A213C): as the sequence (P02925 other isoform, or with tags, fused parts or gaps T28W/L86C) above, with C62L, A189C counted along it

On to `O=C(CI)NCCOCCOCCNC(=O)CCCC[C@@H]1SC[C@@H]2NC(=O)N[C@@H]21` [IAM-biotin, EZ-Link™ Iodoacetyl-PEG2-Biotin], for which the “pseudo-first order rate constant (kint)” value came to 0.00062 s⁻¹ in data set [1] (25 °C, 25 mM MOPS, 100 mM KCl); 0.00016 s⁻¹ in data set [1] (35 °C); 0.0035 s⁻¹ in data set [1] (45 °C); 0.0077 s⁻¹ in data set [1] (55 °C). The “second order rate constant (k=kint/[GSH])” value in data set [1] (25 °C) amounted to 0.78 M⁻¹ s⁻¹; in data set [1] (35 °C) it was 2.0 M⁻¹ s⁻¹; in data set [1] (45 °C), 4.4 M⁻¹ s⁻¹; in data set [1] (55 °C) it was 9.6 M⁻¹ s⁻¹. Moreover, the “Arrhenius pre-exponential factor (ln A), IAM-biotin + GSH” value in data set [1] (setting [5]) worked out at 27.1±0.5. Also, the “Arrhenius slope (−Ea/R), IAM-biotin + GSH” value in data set [1] (setting [5]) is −8.2×10^3±0.1×10^3.

For orientation: Kd means the constant that tells how readily two partners part at equilibrium. Low readings indicate tighter binding, high ones weaker binding. `O=C[C@H](O)[C@H](O)[C@H](O)CO` [ribose, reference compound]: the dissociation constant (Kd) in data set [2] turned out to be 2800 ± 200 nM; in data set [3], 1800 ± 100 nM.

B1: ecRBP.A188C (protein, UniProt P02925 26-296, looked up, variant A188C)
Ribose import binding protein …: KDTIALVVSTLNNPFFVSLKDGAQKEADKLGYNLVVLDSQNNPAKELANVQDLTVRGTKILLINPTDSDAVGNAVKMANQANIPVITLDRQATKGEVVSHIASDNVLGGKIAGDYIAKKAGEGAKVIELQGIAGTSAARERGEGFQQAVAAHKFNVLASQPADFDRIKGLNVMQNLLTAHPDVQAVFCQNDEMALGALRALQTAGKSDVMVVGFDGTPDGEKAVNDGKLAATIAQLPDQIGAKGVETADKVLKGEKVQAKYPVDLKLVVKQ
As to B1, the ΔG in data set [3] ([Ligand] 0 μM) came out at 0.8 kcal/mol; in data set [3] ([Ligand] 1.5 μM (ribose)), 1.1 kcal/mol; in data set [3] ([Ligand] 3 μM (ribose)) it was 1.4 kcal/mol; in data set [3] ([Ligand] 6 μM (ribose)), 1.6 kcal/mol; in data set [3] ([Ligand] 12 μM (ribose)), 2.2 kcal/mol; in data set [3] ([Ligand] 24 μM (ribose)), 2.5 kcal/mol. The ΔΔG in data set [3] ([Ligand] 0 μM) stood at 0 kcal/mol; in data set [3] ([Ligand] 1.5 μM (ribose)), 0.3 kcal/mol; in data set [3] ([Ligand] 3 μM (ribose)), 0.6 kcal/mol; in data set [3] ([Ligand] 6 μM (ribose)) it was 0.8 kcal/mol; in data set [3] ([Ligand] 12 μM (ribose)), 1.4 kcal/mol; in data set [3] ([Ligand] 24 μM (ribose)) it was 1.7 kcal/mol. Further, the kex in data set [3] ([Ligand] 0 μM) is 0.00217 s⁻¹; in data set [3] ([Ligand] 1.5 μM (ribose)), 0.00141 s⁻¹; in data set [3] ([Ligand] 3 μM (ribose)) it was 0.00097 s⁻¹; in data set [3] ([Ligand] 6 μM (ribose)) it was 0.00073 s⁻¹; in data set [3] ([Ligand] 12 μM (ribose)), 0.00032 s⁻¹; in data set [3] ([Ligand] 24 μM (ribose)), 0.00019 s⁻¹. The same molecule gave a ΔHm in data set [4] of 91 ± 4 kcal/mol. Moreover, in data set [4], the “ΔG°U at 25° C.” value was 4.1 ± 0.1 kcal/mol. The “apparent Tm below wild-type” value in data set [4] was around 8 °C.

B2: ecRBP.L62C: E. coli ribose-binding protein variant L62C (SEQ ID NO:12) (protein, listed as Escherichia coli)
chain: MKDTIALVVSTLNNPFFVSLKDGAQKEADKLGYNLVVLDSQNNPAKELANVQDLTVRGTKICLINPTDSDAVGNAVKMANQANIPVITLDRQATKGEVVSHIASDNVLGGKIAGDYIAKKAGEGAKVIELQGIAGTSAARERGEGFQQAVAAHKFNVLASQPADFDRIKGLNVMQNLLTAHPDVQAVFAQNDEMALGALRALQTAGKSDVMVVGFDGTPDGEKAVNDGKLAATIAQLPDQIGAKGVETADKVLKGEKVQAKYPVDLKLVVKQNGGSHHHHHH
Take B2: the ΔG was determined as 1.0 kcal/mol in data set [2] ([Ligand] 0 μM); 1.5 kcal/mol in data set [2] ([Ligand] 1.5 μM (ribose)); 1.8 kcal/mol in data set [2] ([Ligand] 3 μM (ribose)); 2.2 kcal/mol in data set [2] ([Ligand] 6 μM (ribose)); 2.6 kcal/mol in data set [2] ([Ligand] 12 μM (ribose)); 2.7 kcal/mol in data set [2] ([Ligand] 24 μM (ribose)). Also, the ΔΔG turned out to be 0 kcal/mol in data set [2] ([Ligand] 0 μM); 0.5 kcal/mol in data set [2] ([Ligand] 1.5 μM (ribose)); 0.7 kcal/mol in data set [2] ([Ligand] 3 μM (ribose)); 1.2 kcal/mol in data set [2] ([Ligand] 6 μM (ribose)); 1.5 kcal/mol in data set [2] ([Ligand] 12 μM (ribose)); 1.6 kcal/mol in data set [2] ([Ligand] 24 μM (ribose)). For the same molecule, the kex came to 0.0099 s⁻¹ in data set [2] ([Ligand] 0 μM); 0.0051 s⁻¹ in data set [2] ([Ligand] 1.5 μM (ribose)); 0.0036 s⁻¹ in data set [2] ([Ligand] 3 μM (ribose)); 0.00019 s⁻¹ in data set [2] ([Ligand] 6 μM (ribose)); 0.00011 s⁻¹ in data set [2] ([Ligand] 12 μM (ribose)); 0.00091 s⁻¹ in data set [2] ([Ligand] 24 μM (ribose)). Further, in data set [4] (Gibbs-Helmholtz fit of QCR ΔGU(T)), the “apparent Tm” value came to 54±1 °C. Besides, the ΔHm in data set [4] stood at 81 ± 2 kcal/mol. In addition, in data set [4], the “ΔG°U at 25° C.” value was 3.2 ± 0.1 kcal/mol. The “apparent Tm below wild-type” value in data set [4] is around 8 °C.

The record behind these values is patent US9927440B2, “Protein engineering” (priority 2009, dated 2018).
